Laboratory results published in patent publication US12611470B2, “Chromatin-opening element for stable long term gene expression” (CZ Biohub SF, LLC, priority 2019, dated 2026).

Tested on: P19 cells
Experiment: Lentiviral transduction silencing experiment, UCOE linked to CMV, EF1α, RSV or PGK promoter driving GFP
Type: cell-based, mouse
Excerpt: The graphs show the raw data of measured percent GFP positive cells (% GFP+) for each construct over time. Transduced populations were sorted into triplicate wells using FACS at day 0 (5 days after lentiviral transductions) to begin the study at 100% GFP positive cells. Expression is lost quickly within the first 10 days, and then stabilizes around day 15. Data is reported as mean±SD from biological triplicates. Two positive UCOE controls (A2UCOE, 3′UCOE) and a negative control (no insulator region) were used.
Percent GFP positive cells at the final timepoint (day 26 for CMV and RSV, day 27 for PGK and EF1α) of the lentivirus silencing experiment across the four tested promoters is plotted. P19 cells were FACS-sorted five days after transduction (day 0) and then assayed over a 26 or 27-day time period thereafter. Data is reported as mean±SD from three biological replicates.
Two plasmids (pCS3800: encoding HIV-1 Gag; pCS380: encoding VSVg envelope protein) were used with varying versions of the donor plasmid pCS3799. HEK293T cells were plated at 5×10^6 cells in a 10 cm dish. Twenty-four hours after plating, the three plasmids (10 μg donor, 8 μg pCS3800, 10 μg pCS3801) were co-transfected together using a calcium phosphate protocol (Zufferey, R. T. and Trono, D. (2001) Current Protocols in Human Genetics, 26 (1), 12.10.1-12.10.12; DOI: 10.1002/0471142905.hg1210s26 (55)). The total DNA was brought to 500 μL in water, to which 500 μL of 2×HEPES-buffered saline, pH7.0 (Alfa Aesar) was added and mixed. One-tenth of the total volume (100 μL) of 2.5 M calcium chloride (Sigma-Aldrich) was then added to the mixture, followed by a 20-minute incubation. The mixture was then added to the plate in a dropwise manner. Media was replaced six hours later, and the supernatant was collected at 48 hr after the transfection, filtered through 0.4 μm filter, and frozen at −80° C. in 1 mL aliquots. Lentiviral aliquots were thawed in a 37° C. bead bath before transductions.
P19 cells were plated at 20-30,000 cells/well in 12-well plates one day before transduction. Twenty-four hours after plating, cells were transduced at varying dilutions of the lentiviral stock (ranging from 1:2 to 1:100) in DMEM+10% FBS with 8 μg/mL polybrene (Santa Cruz Biotechnologies). Media was refreshed on P19 cells 24 hours after transduction, and cells were passaged and assayed through a MACSQuant® VYB flow cytometer (Miltenyi Biotec) 48 h after transduction. MOI was determined by reporter expression at this timepoint using the following formula: MOI=ln (1/1-p) where p is the % of cells that are GFP positive at 48 hours post-transduction (Chen, S. et al. (2015) Cell, 160, 1246-1260 (56)).
Cells were FACS-sorted on the BD Influx™ cell sorter at the Stanford FACS Facility using the 488-nm laser and 525/40 filter to assay GFP expression. After gating for singlets and viability, GFP+ gate was drawn to be <0.1% GFP positive in non-transduced P19 cells. GFP+ gates were re-drawn for each promoter set to avoid the ˜10% highest and lowest expressing cells within the GFP+ gate, but the same gate was used for every experimental condition under the same promoter. Triplicate wells of each population (12-15,000 cells/well in a 24-well plate) were collected.
Fluorescence data throughout silencing experiments was obtained using a MACSQuant® VYB flow cytometer (Miltenyi Biotec). EGFP was measured through the 488-nm laser and 525/50 nm band pass filter. Flow cytometry data was analyzed using the FlowJo™ single cell flow cytometry analysis software (Tree Star). After being gated for singlets and viability, GFP+ gates in FlowJo were drawn such that a non-transfected or non-transduced P19 cell population was at 1% GFP+. Median values reported are of cells within the GFP+ gate, both % GFP positive and median are reported with the standard deviation of biological replicates. […]

B1: Candidate 6: Full length SRF-UCOE, SEQ ID NO:1; region between human SURF1 and SURF2 including first introns, chr9 (nucleic acid, listed as Homo sapiens)
DNA: GCACACGACCACAATTCCACTGAAAGCATTTTAATACGGAACTTGTCACTCCCAGGGAGCCTCCGCTCAGCCGGCAGTTGGTTCATTTCAATCCCCACGACAACCCTTCAAAGTGCAGGGCAGACAGCAGGTGGCTCTGCCCAGGCGCCTGGATCACAGCCCGGCCTGCAGCCCTCACCTGGGCGCGGGGAGACCCTGAGGACGCTCCTCCAGGCGGCGCTGGCCGGGGCCTGCGGACACGGACGGGCGGGCTGAGCTCCGGGACCCCTCCCCGCGCCCCGCACCCCGCACCCCGCACCCCGCACCCCGCACCCGGCGCTCACCCGTCCCAGCCCCGCCGCCCGCAGCCCCAGCTGCAACGCAGCCACCGCCGCCATCGCACCCGGCCCCGCGGGCGCTTCCGGGACGCAGGAGGCATCTGCATCCGGGGCGCCGCTGAGTCCCGCCCAGAGCCCCGCCCCCGGCTCCAGGTTCTGCGAGCGGCTTCCGCCGGGCTGCTCCGCGGGCGCGTCGGCCATGAGCGAGTTGCCGGGCGACGTGCGGGCGTTTCTGCGGGAGCACCCGAGCCTGCGGCTCCAGACGGACGCCCGCAAGGTTCGCAGCGCGGGAGGGGAACGGAGTGGCGGAGAAGGGCGCAGTTGGGATGAGGGGCTGAGGGGAGGGCAGGGGAGAGGAGAGGGCAGGGGAGAGGGGAGAGGGGAGAGCAGGAGAGAGGGGAAGGCAGGGGAGAGGGCGCGGCGGGATCAGGGGAGGAGAGGGAAGGGGGCGCGGCAGGAGGGGGCACCAGGGAGCGGAGCCCTGGCCCTCCTGACGTCCTGCCCGCCCACGCGTCCGCAGGTGAGGTGCATCCTGACAGGTCACGAGCTGCCCTGCCGCCTGCCGGAGCTCCAGGTCTACACCCGCGGCAAAAAGTACCAGCGGCTGGTCCGCGCCTCCCCGGCCTTCGACTATGCAGAGTTCGAGCCGCACATCGTGCCCAGCACCAAGAACCCGTAGGTGGTC
GFP positive cells / expression compared to the negative control (Ef1α promoter, final timepoint): 2.7 times | % GFP+ cells at final timepoint (PGK promoter, day 27): 29% | expressing cells / improvement over the negative control (PGK promoter, day 27): 5 fold | % GFP+ cells at final timepoint (RSV promoter, day 26): 76% | % GFP+ cells, representative example (one biological replicate) (RSV promoter, day 26): 79.6%
